Reference: patent US12565680B2, “Cancer neoantigens and their utilities in cancer vaccines and TCR-based cancer immunotherapy” (THE METHODIST HOSPITAL SYSTEM, priority 2018, dated 2026)

Key:
T-cell clones of 135TIL = assay: IFN-γ ELISA with tumor-reactive T-cell clones of 135TIL; assay type: cell-based, human; conditions: peptide titration; 135-1C1 (ADIPOR2), 135-1E1 (LAGE1b)
Description: Thus, immunogenic antigens can be generated from various sources or mechanisms [such as alternative ORFs, noncoding regions (3′ and 5′ UTRs, introns, noncoding RNA)]. […] All other tumor-reactive CD4^+ T-cell clones and CD8^+ T-cell clones recognized the mutation-derived neoantigens. […] To identify these two antigens recognized by these two CD4^+ T-cell clones, an Ii-fusion cDNA library derived from 135 mel tumor cells was constructed using experimental procedures. The Ii-fusion cDNA library pools (approximately 100 cDNA clones per pool) were transfected into 293IMDR3/DP4 or 293IMDR4/DP4 cells, followed by co-culturing with CD4^+ T-cell clones (135-1C1 or 135-1E1). After 2×10^5 cDNA clones, positive cDNA library pools that stimulate two T-cell clones, respectively, were identified based on IFN-γ release by ELISA (FIG. 6B). The positive pools were then transformed into Stbl3™ Escherichia coli, and single bacteria colonies were picked for plasmid DNA isolation. […] The 135-1E1 T cell-reactive cDNA clones encoded the product translated from an alternative reading frame of CTAG2 (LAGE1b) (FIG. 6C and FIG. 7A). […]
T-cell cloning and expansion were performed. […] On day 14, T-cell clones were harvested, counted, tested for tumor reactivity. […]

135TIL = assay: IFN-γ ELISA with bulk 135TIL (IVT-RNA electroporated 135EBV-B cells; peptide titration and truncation); assay type: cell-based, human; conditions: serially diluted peptides
Experimental: Due to low transfection efficiency of EBV-B cells, in vitro transcribed (IVT) RNA of 24 TMGs were generated and then electroporated them into 135EBV-B cells, followed by adding 135TIL cells for antigen recognition based on cytokine release assay.
96-well tissue culture plates were coated with phosphate-buffered saline (PBS, GenDEPOT) containing 50 μg/ml poly-L-lysine (Millipore Sigma) at 37° C. 10 min later, the plates were rinsed twice with PBS. Tumor cells or 293-APCs were seeded at 5×10^4/well in the 96-well plate and cultured at 37° C., 5% CO2 for at least 4 h. For plasmid transfection, 250 ng of plasmid DNA were transfected into 293-APCs per well with 0.5 μl of Lipofectamine 2000 (Thermo Fisher Scientific) according to the manufacturer's instructions and incubated at 37° C., in 5% CO2 overnight. For peptide presentation, synthesized peptides (GeneScript) were added to each well at different final concentrations from 10^2 to 10^−4 μM and incubated at 37° C., 5% CO2. The cells transfected with plasmids or pulsed with peptides were washed with TCM twice, and then cocultured with T cells (1×10^5/well). […]
96-well microplate (Greiner Bio-one) was coated with 50 μl of PBS containing anti-human IFN-γ (Thermo Fisher Scientific, primary antibody, 1 μg/ml) per well and incubated at 4° C. overnight. […] The plate was read at OD450 nm. The concentration of IFN-γ was calculated by standard reading. […]

B1: … MEGAPAGPGGRTAACLSCTSRCLSRRPWKRSWSAGSCPGMPHRSPDQGRF (peptide)
chain: EALAFLMAQGAMLAAQERRVPRAAEVPGAQGQQGPRGREEAPRGVRMAVPLLRRMEGAPAGPGGRTAACLSCTSRCLSRRPWKRSWSAGSCPGMPHRSPDQGRF
notes: 109 aa peptide from frame-shifted reading frame (ORF2) of CTAG2 (LAGE1b)
recognition of antigen peptides by specific T-cell clones (T-cell clones of 135TIL): strongly recognized | recognition of titrated peptides by 135TIL (IFN-γ ELISA) (135TIL): little or no activity
